According to the supplement of paper PMC10567573:

B1: ATL3 (parent)
chain: YGLQGGMAFLDKRLQVKEHQHEEI

Variants of: B1
Test: protein stability index of a GFP-peptide fusion (GPS, HEK-293T) (PSI 1-6); higher = more stable
Details: c terminus: a fixed tail appended
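Note: lentivirally expressed fusions sorted by FACS into six bins by GFP to DsRed ratio, PSI derived from sequencing read proportions per bin multiplied by bin number.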

Protein stability index of substitutions, site by site:
V16: N 1.6; G 1.77; D 2.08; P 1.22; A 2.7; K 2.84; W 2.33; R 2.02; E 2.79; L 2.81; Q 3.13; F 2.5; T 2.3; Y 3.04; C 2.78; S 1.46; H 1.91; M 2.42
L10: W 1.96; D 4.11; T 2.35; H 1.98; Q 1.65; N 2.05; G 1.89; A 3.49; V 2.57; E 3.82; C 3.07; P 3.39; Y 1.68; K 1.62; F 2.03; M 1.54
Q20: H 3.12; D 3.09; M 2.35; A 2.87; I 2.56; K 1.85; N 2.86; F 3.31; G 3.57; C 3.54; E 2.5
F9: M 4.25; Q 4.42; G 4.45; C 4.13; I 3.82; V 4.23; D 4.88; R 3.79; W 2.26; A 4.3; L 3.84; T 4.58; N 4.51; Y 1.91; S 4.49; P 4.69; K 4.4; H 4.06; E 5
R13: Y 1.34; Q 1.86; T 2.28; L 2.3; D 1.52; P 1.93; A 2.47; G 1.28; K 2.84; C 2.56; N 2.87; W 1.73; V 2.14; E 1.59; S 1.98; M 2.04; H 2.26; I 1.66; F 2.73
M7: D 2.16; W 1.47; R 2.24; S 2.05; V 2.52; I 2.28; H 1.75; P 2.18; E 3.23; Q 1.03; T 1.7; F 3.3; K 3.76; G 2.02; L 2.66; C 2.48; A 1.38; Y 1.93; N 2.23
Q15: K 2.54; C 3.47; F 2.65; A 3.14; V 2.9; I 2.64; H 2.75; D 2.4; N 1.79; S 3.92; T 2.04; L 2.21; R 2.28; W 2.37; E 1.76; P 2.47; G 2.69; Y 2.44; M 3.24
H19: N 2.6; L 2.36; K 2.25; S 2.01; A 2.74; I 2.95; W 3.59; E 2.81; M 2.82; V 3.03; G 2.65; C 2.31; P 2.5; D 3.38; Q 2.48; Y 2.76; T 2.54
Q4: P 2.37; N 3.07; D 2.18; T 1.89; E 1.92; L 1.75; A 3.19; V 2.25; R 2.67; S 2.16; W 2.66; K 3.89; F 2.32; M 2.83; G 1.98; H 3.46; I 2.86; C 3.19
G6: S 2.13; W 1.97; A 3.1; T 1.73; R 2.85; V 2.03; C 2.21; E 2.41; N 2.32; K 2.46; L 3.04; Y 2.34; I 2.54; M 2.26; P 2.65; H 1.63; Q 2.95; D 2.31
G2: N 2.26; W 2.37; S 2.96; H 2.3; K 3.22; E 3.28; Q 2.11; R 3.49; P 2.63; Y 2.71; L 1.93; M 2.39; F 2.31; T 2.05; I 1.66
G5: H 2.5; M 2.1; Q 2.73; R 2.39; T 3.18; P 2.65; K 2.4; I 2.04; N 2.44; F 1.82; D 2.34; S 2.25; V 2.28; E 3.15; A 1.74; Y 2.66; C 1.92; L 2.39
L3: N 2.45; T 2.86; M 2.31; E 2.37; R 3.69; D 2.96; Q 2.73; G 2.46; I 2.2; P 2.55; Y 2.99; H 2.81; C 2.03; A 1.92; W 3.64; K 2.93; F 2.76
A8: D 3.79; S 2.09; V 2.42; H 1.4; I 2.71; K 1.71; T 3.38; W 3.35; E 2.91; R 1.74; C 2; G 2.81; P 2.93; N 2.33; Y 2.68; F 3.46; Q 2.02; L 2.67
L14: G 3.93; I 2.63; Q 1.52; D 2.16; C 3.61; W 2.82; M 2.07; H 2.04; P 3.04; E 2.55; F 2.82; N 1.77; R 2.48; Y 3.4; K 2.1; A 3.51; T 3.17; V 2.45; S 2.57
K17: W 2.2; T 2.7; R 2.99; S 1.8; V 2.42; E 2.56; N 3.3; P 2.82; C 2.17; M 2.55; Q 1.55; A 1.42; F 2.52; D 1.54; H 2.63; Y 3.11; I 2.51
K12: L 3.83; V 2.62; Y 2.73; E 1.99; C 1.49; W 2.44; M 2.89; I 3.88; D 1.75; S 2.26; G 2.22; Q 1.81; H 2.03; N 2.91; P 1.88; A 1.93; F 3.37; T 1.79
E18: A 3.26; C 2.58; H 2.48; F 3.53; D 2.19; G 3.65; T 2.4; Q 1.99; K 3.37; V 1.9; M 3.04; I 3.67; R 2.19; W 3.87; S 1.73; Y 2.61; N 2.32; P 2.37; L 1.74
D11: E 2.9; F 1.78; K 2.27; I 1.85; R 1.95; T 2.16; S 1.91; Y 2.74; W 2.01; V 2.84; N 1.81; L 2.37; G 2.76; Q 1.72; C 2.94; M 2.22; H 1.61; P 2.33; A 1.65
